Legend:
[1] = molecular target: somatostatin receptors in GH4 C1 cells; test: radioligand filtration binding on crude GH4 C1 membranes, vehicle-treated cells
[2] = molecular target: somatostatin receptors in GH4 C1 cells; test: radioligand filtration binding on crude GH4 C1 membranes, sense oligo treated cells
[3] = molecular target: somatostatin receptors in GH4 C1 cells; test: radioligand filtration binding on crude GH4 C1 membranes, cells treated with antisense oligo for 24 hours
[4] = molecular target: somatostatin receptors in GH4 C1 cells; test: radioligand filtration binding on crude GH4 C1 membranes, antisense-treated against vehicle and sense-treated cells

- [125I]tyr-somatostatin binding (fmol/mg), vehicle-treated cells [1]: 408 fmol/mg
- [125I]tyr-somatostatin binding (fmol/mg), sense oligo treated cells [2]: 350 fmol/mg
- [125I]tyr-somatostatin binding, antisense oligo treated cells [3]: 166 fmol/mg
- decline in [125I]tyr-somatostatin binding after antisense treatment [4]: 60%
Substance: [125I]tyr-somatostatin, S-14 (from UniProt P61278) (peptide)

Source: patent publication US6077666
